For the series the following is noted: Escherichia coli (strain K12), pH 7.8, Urea, NMR, Potassium phosphate 58 mM, reversible: yes, whole UniProt chain shown.

One protein from FireProtDB (doi:10.1021/bi951726o) can be followed below.

B1: Tryptophan synthase alpha chain wild type, P0A877 (protein)
chain: MERYESLFAQLKERKEGAFVPFVTLGDPGIEQSLKIIDTLIEAGADALELGIPFSDPLADGPTIQNATLRAFAAGVTPAQCFEMLALIRQKHPTIPIGLLMYANLVFNKGIDEFYAQCEKVGVDSVLVADVPVEESAPFRQAALRHNVAPIFICPPNADDDLLRQIASYGRGYTYLLSRAGVTGAENRAALPLNHLVAKLKEYNAAPPLQGFGISAPDQVKAAIDAGAAGAISGSAIVKIIEQHINEPEKMLAALKVFVQPMKAATRS
Consider B1, for which the “denaturant midpoint (higher = more stable)” value (“denaturant midpoint” for short) (5 °C) was 4.8 M; the “denaturant midpoint” value (10 °C) was found to be 4.6 M; the “denaturant midpoint” value (15 °C) is 4.7 M; the “denaturant midpoint” value (20 °C) amounted to 5.4 M; the “denaturant midpoint” value (25 °C) amounted to 5.9 M. The unfolding free energy reads like this: (5 °C) 4.8 kcal/mol; (10 °C) 5.5 kcal/mol; (15 °C) 6.1 kcal/mol; (20 °C) 7.5 kcal/mol; (25 °C) 8.2 kcal/mol.
